Test results from article PMC7213981, “Enhancer architecture sensitizes cell specific responses to Notch gene dose via a bind and discard mechanism” (eLife, 2019).

T1: fly NICD (aa 1763–2412) (Drosophila, UniProt P07207 1763-2412)
T1 construct: Notch intracellular domain, Drosophila, residues 1763-2412; not the full-length NICD; also called Notch intracellular domain
T1 sequence (looked up): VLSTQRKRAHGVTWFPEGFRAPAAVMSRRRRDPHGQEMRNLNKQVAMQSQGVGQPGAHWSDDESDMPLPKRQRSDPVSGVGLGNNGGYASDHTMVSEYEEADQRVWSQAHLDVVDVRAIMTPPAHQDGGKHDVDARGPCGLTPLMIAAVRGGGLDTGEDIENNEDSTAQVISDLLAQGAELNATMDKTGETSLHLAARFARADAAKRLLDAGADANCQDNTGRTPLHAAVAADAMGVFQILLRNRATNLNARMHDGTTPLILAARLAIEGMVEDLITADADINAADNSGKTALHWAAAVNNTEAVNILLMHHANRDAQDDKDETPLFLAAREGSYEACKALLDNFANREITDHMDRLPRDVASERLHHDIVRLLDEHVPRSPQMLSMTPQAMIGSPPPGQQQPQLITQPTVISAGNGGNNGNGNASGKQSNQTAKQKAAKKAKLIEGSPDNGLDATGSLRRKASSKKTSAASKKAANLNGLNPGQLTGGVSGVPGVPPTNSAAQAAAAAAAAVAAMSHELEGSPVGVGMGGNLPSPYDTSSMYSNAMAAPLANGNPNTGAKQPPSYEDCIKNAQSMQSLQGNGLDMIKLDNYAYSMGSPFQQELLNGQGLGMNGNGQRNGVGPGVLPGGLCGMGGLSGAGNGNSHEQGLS

B1: mouse N1ICD (aa 1744–2113) (domain or fragment, UniProt Q01705 1744-2113, looked up)
chain: VLLSRKRRRQHGQLWFPEGFKVSEASKKKRREPLGEDSVGLKPLKNASDGALMDDNQNEWGDEDLETKKFRFEEPVVLPDLSDQTDHRQWTQQHLDAADLRMSAMAPTPPQGEVDADCMDVNVRGPDGFTPLMIASCSGGGLETGNSEEEEDAPAVISDFIYQGASLHNQTDRTGETALHLAARYSRSDAAKRLLEASADANIQDNMGRTPLHAAVSADAQGVFQILLRNRATDLDARMHDGTTPLILAARLAVEGMLEDLINSHADVNAVDDLGKSALHWAAAVNNVDAAVVLLKNGANKDMQNNKEETPLFLAAREGSYETAKVLLDHFANRDITDHMDRLPRDIAQERMHHDIVRLLDEYNLVRSPQ
notes: Notch1 intracellular domain, mouse, residues 1744-2113; not the full-length NICD; also called N1ICD1; NICD
B2: human MAML1 (aa 1–280) (domain or fragment, UniProt Q92585 1-280, looked up)
chain: MVLPTCPMAEFALPRHSAVMERLRRRIELCRRHHSTCEARYEAVSPERLELERQHTFALHQRCIQAKAKRAGKHRQPPAATAPAPAAPAPRLDAADGPEHGRPATHLHDTVKRNLDSATSPQNGDQQNGYGDLFPGHKKTRREAPLGVAISSNGLPPASPLGQSDKPSGADALQSSGKHSLGLDSLNKKRLADSSLHLNGGSNPSESFPLSLNKELKQEPVEDLPCMITGTVGSISQSNLMPDLNLNEQEWKELIEELNRSVPDEDMKDLFNEDFEEKKD
notes: Mastermind-like protein 1, human, residues 1-280; not the full-length protein; The results list MAML1 among the 'mouse' proteins, the methods say human MAML1; also called Mastermind
B3: fly Su(H) (aa 98–523) (domain or fragment)
chain: not shown
notes: Suppressor of Hairless, Drosophila, residues 98-523; also called CSL
B4: fly Mastermind (aa 87–307) (domain or fragment, Drosophila, UniProt P21519 87-307, looked up)
chain: PYNANLGATGGIAGITGGNGAGGPTNPGAVPTAPGDTMPTKRMPVVDRLRRRMENYRRRQTDCVPRYEQAFNTVCEQQNQETTVLQKRFLESKNKRAAKKTDKKLPDPSQQHQQQQHQQQQQHQQHQQHQQAQTMLAGQLQSSVHVQQKFLKRPAEDVDNGPDSFEPPHKLPNNNNNSNSNNNNGNANANNGGNGSNTGNNTNNNGNSTNNNGGSNNNGSE
notes: Mastermind, Drosophila, residues 87-307; not the full-length protein; also called Mam

What was measured:
Test in all cases: native gel or EMSA; complexes formed on IRDye-labelled 2xCSL and 1xSPS DNA probes in the same binding reaction; RBPJ/Su(H) 10 to 320 nM, 1 µM NICD/Mastermind; native polyacrylamide gel
Conditions in all cases: both partners purified
mouse RBPJ (aa 53–474) = target: T2, mouse RBPJ (aa 53–474) (mouse, UniProt P31266 53-474)
T2 construct: RBPJ, mouse, residues 53-474; also called CSL

fly NICD (aa 1763–2412) = target: T1, fly NICD (aa 1763–2412)
fly Su(H) (aa 98–523) = target: B3
Chain of fly Su(H) (aa 98–523) (P28159 98-523): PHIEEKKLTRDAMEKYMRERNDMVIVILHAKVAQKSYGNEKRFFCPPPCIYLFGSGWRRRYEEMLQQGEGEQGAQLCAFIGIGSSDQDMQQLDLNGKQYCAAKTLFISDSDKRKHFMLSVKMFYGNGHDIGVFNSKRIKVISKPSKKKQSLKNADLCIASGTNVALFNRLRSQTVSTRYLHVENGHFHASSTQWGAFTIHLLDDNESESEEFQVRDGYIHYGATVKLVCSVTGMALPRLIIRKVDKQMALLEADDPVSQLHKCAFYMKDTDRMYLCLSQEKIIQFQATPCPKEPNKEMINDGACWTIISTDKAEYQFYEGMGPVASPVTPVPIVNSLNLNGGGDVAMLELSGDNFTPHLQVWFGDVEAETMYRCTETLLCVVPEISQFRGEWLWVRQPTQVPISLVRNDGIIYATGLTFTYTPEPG

T2 sequence (P31266 53-474): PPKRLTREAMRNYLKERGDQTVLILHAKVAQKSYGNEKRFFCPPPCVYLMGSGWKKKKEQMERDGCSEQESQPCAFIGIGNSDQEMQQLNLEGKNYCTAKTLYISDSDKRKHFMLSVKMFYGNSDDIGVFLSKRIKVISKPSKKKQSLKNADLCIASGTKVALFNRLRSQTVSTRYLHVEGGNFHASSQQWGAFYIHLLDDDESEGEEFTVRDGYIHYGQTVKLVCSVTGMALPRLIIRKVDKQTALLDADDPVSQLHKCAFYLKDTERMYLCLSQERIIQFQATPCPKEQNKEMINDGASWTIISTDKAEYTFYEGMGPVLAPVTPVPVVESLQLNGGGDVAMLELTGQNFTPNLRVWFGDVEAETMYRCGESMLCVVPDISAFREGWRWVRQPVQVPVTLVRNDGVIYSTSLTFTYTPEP

B1: binds (mouse RBPJ (aa 53–474)).

B2: binds (mouse RBPJ (aa 53–474)).

B3: binds (fly NICD (aa 1763–2412)).

B4: binds (fly Su(H) (aa 98–523)).
